The target of test [1] is Glycine max (soybean) heme oxygenase-1 (GmHO-1) (Glycine max (soybean)). Nature of the test: ITC; 800 uM Fd in the syringe into 40 uM apo-GmHO-1 (no heme) in the cell; 25 °C; 20 mM Tris-HCl pH 7.0, 20 mM NaCl; one set of sites model; single measurement. For orientation: Isothermal titration calorimetry measures the heat released or taken up as one component is titrated into another.

Test [2] has the same target. Nature of the test: ITC; 800 uM Fd in the syringe into 40 uM holo-GmHO-1 (heme bound) in the cell; 25 °C; 20 mM Tris-HCl pH 7.0, 20 mM NaCl; one set of sites model; single measurement.

This note sets out measurements from PMC7948506.

By Kd is commonly meant the concentration at which binding is half-saturated. Higher therefore signals lower affinity. By stoichiometry N is commonly meant a count of units in the complex or per binding partner. Take “soybean ferredoxin (Fd) (natural protein)”: in test [1], the Kd came to 14.7 µM, the dH is 3.3 kcal/mol and the stoichiometry N turned out to be 1. In test [2], this substance registered a Kd of 5.3 µM, a dH of 2.6 kcal/mol and a stoichiometry N of 1.
